Reference: patent US9259432

Target: S100B protein
Assay: tryptophan fluorescence quenching, S100B titrated into 5.0 µM peptide, 0.1 mM CaCl2, 12° C.

S100B protein, sequence (P02638 2-92): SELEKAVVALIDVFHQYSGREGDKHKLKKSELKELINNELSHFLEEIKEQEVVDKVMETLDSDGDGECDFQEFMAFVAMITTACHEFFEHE

- Kd: 211 nM
Substance: TRTK12 peptide
